Results taken from patent US7196181B1, “Sequences encoding novel human thyroid peroxidase proteins and polypeptides” (Quest Diagnostics Investments, Inc., priority 1989, dated 2007).
Where “and” joins values, the source holds several entries; their conditions need not be identical. Identical values can stand only once.

Tests used:
CHO-TPO12b cells = assay: Radiolabeled D-glucosamine incorporation into proteins, control experiment; format: cell-based, Chinese hamster; conditions: tunicamycin treatment under similar conditions (0.5 μg/ml, 20 hours); mean±S.D.; n=3
Description: Human TPO contains 5 potential glycosylation sites. It was therefore examined whether carbohydrate moieties are important in the conformation of the epitope(s) in the human TPO antigen(s) recognized by Hashimoto's sera. Western blot analyses were performed on proteins extracted from CHO-TPO12b cells pre-cultured for 20 hours in 0.5 μg/ml tunicamycin, an inhibitor of protein glycosylation. This length of time was chosen because it was the longest tolerated without evidence of significant toxicity (i.e., cell loss). […] In a control experiment, tunicamycin treatment under similar conditions decreased radiolabeled D-glucosamine incorporation into proteins by 56.3±4.8% (mean±S.D.; n=3).

[1] = target: secreted truncated recombinant human thyroid peroxidase (hTPO-M1) (human) (UniProt P07202); assay: Scatchard analysis; 125I-TPO with unlabeled TPO, anti-kappa/Sac-cel precipitation
[2] = target: secreted truncated recombinant human thyroid peroxidase (hTPO-M1) (human) (UniProt P07202); assay: competition with serum TPO autoantibodies (5 sera); Protein A precipitation
[3] = target: secreted truncated recombinant human thyroid peroxidase (hTPO-M1) (human) (UniProt P07202); assay: competition ELISA on secreted TPO; competitor: serum IgG1 TPO autoantibody, second patient; set-up: concentration or dose not given beside the values
[4] = target: secreted truncated recombinant human thyroid peroxidase (hTPO-M1) (human) (UniProt P07202); assay: confluent plaque lysis assay; competition of unlabeled TPO with 125I-TPO, densitometry
[5] = target: secreted truncated recombinant human thyroid peroxidase (hTPO-M1) (human) (UniProt P07202); assay: competition ELISA on secreted TPO; competitor: serum IgG2 TPO autoantibody, third patient; set-up: concentration or dose not given beside the values
[6] = target: secreted truncated recombinant human thyroid peroxidase (hTPO-M1) (human) (UniProt P07202); assay: competition ELISA on secreted TPO; competitor: serum lambda TPO autoantibodies (4 sera)
[7] = target: secreted truncated recombinant human thyroid peroxidase (hTPO-M1) (human) (UniProt P07202); assay: competition with serum TPO autoantibodies (11 sera); SP1.2 10^-10 to 10^-7 M; Protein A precipitation
[8] = target: secreted truncated recombinant human thyroid peroxidase (hTPO-M1) (human) (UniProt P07202); assay: competition ELISA on secreted TPO; competitor: serum IgG1 TPO autoantibody, first patient; set-up: concentration or dose not given beside the values
[9] = target: secreted truncated recombinant human thyroid peroxidase (hTPO-M1) (human) (UniProt P07202); assay: Scatchard analysis; unlabeled TPO competing with 125I-TPO for the Fab
[10] = target: secreted truncated recombinant human thyroid peroxidase (hTPO-M1) (human) (UniProt P07202); assay: competition ELISA on secreted TPO; competitor: serum IgG4 TPO autoantibody, second patient; set-up: concentration or dose not given beside the values
[11] = target: secreted truncated recombinant human thyroid peroxidase (hTPO-M1) (human) (UniProt P07202); assay: Scatchard analysis, 125I-TPO
[12] = target: secreted truncated recombinant human thyroid peroxidase (hTPO-M1) (human) (UniProt P07202); assay: competition ELISA on secreted TPO; competitor: serum IgG4 TPO autoantibody, first patient; set-up: concentration or dose not given beside the values
Thyroid Peroxidase (TPO) = assay: Assay of human TPO enzymatic activity (guaiacol and iodide peroxidase); format: biochemical; conditions: conditioned medium of transfected CHO cells, collected after 3 days of culture
Description: […] P., et al., Endocrinol. 116:1493-1500 (1985)). In later experiments, a more rapid method was used. Cells were suspended with a rubber scraper in 1.5 ml calcium-magnesium free Dulbecco's phosphate-buffered saline and protein determined on a 5 ul aliquot. […] […] One guaiacol unit is defined as a _A470 of 1.0 per minute which is equivalent to 150 nmols guaiacol oxidized per minute (Chance, B., et al., In Methods in Enzymology (Colonic. S. P., et al.), Academic Press, New York 2:164-[…] (1955)). One unit of iodide peroxidase is defined as a _A353 of 1.0 per minute which corresponds to 43 nmols I3-formed per minute (Magnusson, R. P., et al., J. Biol. Chem. 259:13783-13790 (1984)).

[13] = target: T1, recombinant human thyroid peroxidase (hTPO), full-length wild-type, expressed in CHO cells (human, UniProt P07202 19-933); assay: lectin affinity chromatography of 35S-labeled CHO-TPO extract, then immunoprecipitation
T1 construct: Used on intact CHO cells (FACS), as CHO microsomes (ELISA) and as non-denatured detergent extracts (non-reducing Western blot, immunoprecipitation); also called human TPO; thyroid microsomal antigen
T1 sequence: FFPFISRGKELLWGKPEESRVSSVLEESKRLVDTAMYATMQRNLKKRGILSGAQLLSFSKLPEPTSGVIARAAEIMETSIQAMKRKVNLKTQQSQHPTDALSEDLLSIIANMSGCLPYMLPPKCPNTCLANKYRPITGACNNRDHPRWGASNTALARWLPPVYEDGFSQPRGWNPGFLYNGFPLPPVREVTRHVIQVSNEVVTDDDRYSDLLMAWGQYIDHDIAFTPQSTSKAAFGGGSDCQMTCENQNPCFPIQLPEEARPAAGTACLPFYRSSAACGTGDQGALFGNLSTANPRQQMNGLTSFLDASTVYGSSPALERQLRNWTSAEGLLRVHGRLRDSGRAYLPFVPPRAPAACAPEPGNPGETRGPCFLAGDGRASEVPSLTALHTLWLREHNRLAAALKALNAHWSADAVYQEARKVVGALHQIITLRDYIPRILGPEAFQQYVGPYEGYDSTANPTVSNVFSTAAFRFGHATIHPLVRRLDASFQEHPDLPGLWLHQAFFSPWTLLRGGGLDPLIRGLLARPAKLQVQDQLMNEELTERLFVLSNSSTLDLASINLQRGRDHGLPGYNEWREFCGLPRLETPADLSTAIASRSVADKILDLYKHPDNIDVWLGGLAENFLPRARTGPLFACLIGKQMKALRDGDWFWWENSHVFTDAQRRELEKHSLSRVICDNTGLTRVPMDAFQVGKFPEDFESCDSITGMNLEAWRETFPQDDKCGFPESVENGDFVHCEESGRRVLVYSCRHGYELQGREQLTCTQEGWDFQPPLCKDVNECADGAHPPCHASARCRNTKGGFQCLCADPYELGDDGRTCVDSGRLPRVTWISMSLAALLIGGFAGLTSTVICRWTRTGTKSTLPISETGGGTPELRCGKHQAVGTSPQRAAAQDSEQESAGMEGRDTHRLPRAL
Description: After incubation overnight at 4° C., 150 µl of IgG-Sorb were added, and the tubes rotated end over end for 2–4 hours at room temperature. The IgG-Sorb was recovered by centrifugation for 5 minutes at 10,000× g, washed 5 times with 1 ml of immunoprecipitation buffer, and then once with 10 mM Tris, pH 7.5, 2 mM EDTA and 0.5% Na dodecylsufate. Finally, the pellet was resuspended in Laemmli sample buffer (31), with 50 mM dithiothreitol (DTT), boiled for 3 minutes, and applied to 6% polyacrylamide gels. […] Autoradiography was performed with Kodak XAR-5 film.
After application to the columns, the unbound proteins were removed by washing with 50 ml of the foregoing Buffer A's. […] Fractions of 0.5 ml were collected and counted for radioactivity in a liquid scintillation counter.

tunicamycin was tested, and the “Decrease of radiolabeled D-glucosamine incorporation into proteins” value (CHO-TPO12b cells) was 56.3±4.8%.

human TPO-specific Fab fragment SP1.2 was tested, and the Kd [1] was 0.08 nM, the mean % inhibition of serum autoantibody binding to 125I-TPO [2] was 55% and the % inhibition [3] was 62%. The Kd [4] was 1 nM, the % inhibition [5] was 29% and the % inhibition [6] was 12 to 18%. The maximum % inhibition of serum autoantibody binding to 125I-TPO [7] was 36 to 72%, the % inhibition [8] was 14% and the Kd [9] was 0.083 nM. For the same molecule, the % inhibition [10] was 13%, the Kd [11] was 0.06 nM and 0.08 nM and the % inhibition [12] was 77%.

B1: wild-type hTPO: full-length membrane-associated recombinant human TPO expressed in CHO cells (protein, UniProt P07202 1-933, looked up)
chain: MRALAVLSVTLVMACTEAFFPFISRGKELLWGKPEESRVSSVLEESKRLVDTAMYATMQRNLKKRGILSPAQLLSFSKLPEPTSGVIARAAEIMETSIQAMKRKVNLKTQQSQHPTDALSEDLLSIIANMSGCLPYMLPPKCPNTCLANKYRPITGACNNRDHPRWGASNTALARWLPPVYEDGFSQPRGWNPGFLYNGFPLPPVREVTRHVIQVSNEVVTDDDRYSDLLMAWGQYIDHDIAFTPQSTSKAAFGGGADCQMTCENQNPCFPIQLPEEARPAAGTACLPFYRSSAACGTGDQGALFGNLSTANPRQQMNGLTSFLDASTVYGSSPALERQLRNWTSAEGLLRVHARLRDSGRAYLPFVPPRAPAACAPEPGIPGETRGPCFLAGDGRASEVPSLTALHTLWLREHNRLAAALKALNAHWSADAVYQEARKVVGALHQIITLRDYIPRILGPEAFQQYVGPYEGYDSTANPTVSNVFSTAAFRFGHATIHPLVRRLDASFQEHPDLPGLWLHQAFFSPWTLLRGGGLDPLIRGLLARPAKLQVQDQLMNEELTERLFVLSNSSTLDLASINLQRGRDHGLPGYNEWREFCGLPRLETPADLSTAIASRSVADKILDLYKHPDNIDVWLGGLAENFLPRARTGPLFACLIGKQMKALRDGDWFWWENSHVFTDAQRRELEKHSLSRVICDNTGLTRVPMDAFQVGKFPEDFESCDSITGMNLEAWRETFPQDDKCGFPESVENGDFVHCEESGRRVLVYSCRHGYELQGREQLTCTQEGWDFQPPLCKDVNECADGAHPPCHASARCRNTKGGFQCLCADPYELGDDGRTCVDSGRLPRVTWISMSLAALLIGGFAGLTSTVICRWTRTGTKSTLPISETGGGTPELRCGKHQAVGTSPQRAAAQDSEQESAGMEGRDTHRLPRAL
modifications: full-length
notes: full-length membrane-associated recombinant human TPO expressed in CHO cells
In the case of B1, the “TPO activity in culture medium” value (Thyroid Peroxidase (TPO)) is reported as “no detectable enzymatic activity”.

B2: mutated form of hTPO: truncated, secreted recombinant human TPO (848 amino acids) from CHO-TPO-M1-K1 cells (protein)
chain: FFPFISRGKELLWGKPEESRVSSVLEESKRLVDTAMYATMQRNLKKRGILSGAQLLSFSKLPEPTSGVIARAAEIMETSIQAMKRKVNLKTQQSQHPTDALSEDLLSIIANMSGCLPYMLPPKCPNTCLANKYRPITGACNNRDHPRWGASNTALARWLPPVYEDGFSQPRGWNPGFLYNGFPLPPVREVTRHVIQVSNEVVTDDDRYSDLLMAWGQYIDHDIAFTPQSTSKAAFGGGSDCQMTCENQNPCFPIQLPEEARPAAGTACLPFYRSSAACGTGDQGALFGNLSTANPRQQMNGLTSFLDASTVYGSSPALERQLRNWTSAEGLLRVHGRLRDSGRAYLPFVPPRAPAACAPEPGNPGETRGPCFLAGDGRASEVPSLTALHTLWLREHNRLAAALKALNAHWSADAVYQEARKVVGALHQIITLRDYIPRILGPEAFQQYVGPYEGYDSTANPTVSNVFSTAAFRFGHATIHPLVRRLDASFQEHPDLPGLWLHQAFFSPWTLLRGGGLDPLIRGLLARPAKLQVQDQLMNEELTERLFVLSNSSTLDLASINLQRGRDHGLPGYNEWREFCGLPRLETPADLSTAIASRSVADKILDLYKHPDNIDVWLGGLAENFLPRARTGPLFACLIGKQMKALRDGDWFWWENSHVFTDAQRRELEKHSLSRVICDNTGLTRVPMDAFQVGKFPEDFESCDSITGMNLEAWRETFPQDDKCGFPESVENGDFVHCEESGRRVLVYSCRHGYELQGREQLTCTQEGWDFQPPLCKDVNECADGAHPPCHASARCRNTKGGFQCLCADPYELGDDGRTCVDSGRLPRVT
B2 was tested, and the “TPO activity in culture medium” value (Thyroid Peroxidase (TPO)) was 1.0 guaiacol U/10 ml medium.

B3: peanut agglutinin (agarose-bound lectin) (other, UniProt P02872 24-259, looked up)
chain: AETVSFNFNSFSEGNPAINFQGDVTVLSNGNIQLTNLNKVNSVGRVLYAMPVRIWSSATGNVASFLTSFSFEMKDIKDYDPADGIIFFIAPEDTQIPAGSIGGGTLGVSDTKGAGHFVGVEFDTYSNSEYNDPPTDHVGIDVNSVDSVKTVPWNSVSGAVVKVTVIYDSSTKTLSVAVTNDNGDITTIAQVVDLKAKLPERVKFGFSASGSLGGRQIHLIRSWSFTSTLITTTRRS
notes: also called PNA
B3: no binding [13].

B4: Ulex europaeus lectin (agarose-bound) (other)
chain: SDDLSFKFKNFSQNGKDLSFQGDASVIETGVLQLNKVGNNLPDETGGIARYIAPIHIWNCNTGEVASFITSFSFFMETSANPKAATDGLTFFLAPPDSPLRRAGGYFGLFEDTKDNDSSYQTVAVEFDTIGSPVNFDDPGFPHIGIDVNRVKSINAERWNKRYGLNNVANVEIIYEASSKTLTASLTYPSDQTSISVTSIVDLKEILPEWVSVGFSGGTYIGRQATHEVLNWYFTSNLINTNS
modifications: Lectin immobilised on agarose beads. The native lectin is a glycosylated homodimer; one subunit is given.
notes: also called UEA-F
B4: no binding [13].
